Results from patent publication US20230399417A1 (Genentech, published 2023).
No end group written: not given here.

T1: mouse IL-1β peptide 21LFFEVD26 (mouse)
T1 construct: Liberated C-terminus of the noncanonical cleavage site, with free C-terminal Asp
T1 peptide: LFFEVD-OH

T2: IL-18 peptide 30GDLESD35
T2 construct: Liberated C-terminus of IL-18, with free C-terminal Asp
T2 peptide: GDLESD

B1: CJ11 Fab (Fab, V domains shown)
VH: QSVEESGGGLVTPGTPLTLTCTVSGIDLSRYAMSWVRQAPGKGLEWIGIFGSLGGIFYASWAKGRFTISKTSPTTVDLKITSPTTEDTATYFCARMPYTTDRDFWGPGTLVTVSS
VL: DIVMTQTPSSTSAAVGGTVTITCQASQSVANNNYLKWYQQKRGQPPKQLIYSVSTLASGVPSRFKGSGSGTQFTLTISDLECDDAATYYCSGYFNNNIGAFGGGTKLEIK
notes: also called its Fab
B2: CJ11 Fab modified by reductive lysine methylation (Fab, V domains shown)
VH: B1 VH
VL: B1 VL
modifications: lysines modified by reductive methylation

Experiments:
[1] = molecular target: T1, mouse IL-1β peptide 21LFFEVD26; experiment: X-ray co-crystal structure
IL-18 peptide 30GDLESD35 = molecular target: T2, IL-18 peptide 30GDLESD35; experiment: X-ray co-crystal structure

Row | Binder | binding result [1] | binding result (IL-18 peptide 30GDLESD35)
1 | B1 | binds | 
2 | B2 |  | binds
